In patent publication US20230096452A1 (SHANGHAI ESCUGEN BIOTECHNOLOGY, published 2023):
Residue numbers refer to the chain shown, from its start.

B1: 163E12 human-mouse chimeric positive control antibody (antibody, V domains shown)
VH: QIQLVQSGPELKKPGETVKISCKASGYTFTNYGMNWVKQAPGKGLKWMGWINTNTGEPTYAEEFKGRFAFSLETSASTAYLQINNLKNEDTATYFCARLGFGNAMDYWGQGTSVTVSS
VL: DIVMTQSPSSLTVTAGEKVTMSCKSSQSLLNSGNQKNYLTWYQQKPGQPPKLLIYWASTRESGVPDRFTGSGSGTDFTLTISSVQAEDLAVYYCQNDYSYPLTFGAGTKLELKR
notes: Self-made, expressed in CHOS cells, Protein A purified; also called Benchmarker; Benchmark
B2: 5-M9 human-mouse chimeric monoclonal antibody (antibody, human IgG1, V domains shown)
VH: QVQLKESGPVLVAPSQSLSITCTVSGFSLTTYGVQWVRQPPGKGLEWLGAIWAGGNTNYNSALMSRLSISKDNSKSQVFLKMNSLQTDDTAIYYCAKGGYGNAMDYWGQGTSVTVAS
VL: DIVMTQSPSSLTVTAGERVTMSCKSSQSLLNSGNQKNYLTWYQQKSGQPPKLLIYWASTRESGVPDRFTGSGSGTDFTLTISSVQAEDLAVYYCQNDYFFPFTFGSGTKLEIK
notes: Mouse V regions fused to human IgG1 (G1m17) heavy chain constant region and human kappa light chain constant region; also called 5-M9-A; Chi 5-M9
B3: 9-D1 human-mouse chimeric monoclonal antibody (antibody, human IgG1, V domains shown)
VH: EIQLQQSGAELVKPGASVKISCKASGYSFTDYHMNWVRQSHGKSLEWIGNIDPYYGSPTYNHKFKGKATLTVDKSSSTAYMQLISLTSEDSAVYYCANYGRGNSFPYWGQGTLVTVSA
VL: B2 VL with R18K, K36R, S46P, I54L, F99S
notes: Mouse V regions fused to human IgG1 (G1m17) heavy chain constant region and human kappa light chain constant region; also called 9-D1-A
B4: 175D10 human-mouse chimeric positive control antibody (antibody, V domains shown)
VH: QVQLQQPGAELVRPGASVKLSCKASGYTFTSYWINWVKQRPGQGLEWIGNIYPSDSYTNYNQKFKDKATLTVDKSSSTAYMQLSSPTSEDSAVYYCTRSWRGNSFDYWGQGTTLTVSS
VL: B1 VL with L102F, A106S, L112I
notes: Self-made, expressed in CHOS cells, Protein A purified; also called Benchmark
B5: h5M9V10 humanized antibody (h5M9 VHv4 / h5M9 VLv1) (antibody, human IgG1, kappa, V domains shown)
VH: QVQLKESGPGLVAPSETLSITCTVSGFSLTTYGVQWVRQPPGKGLEWLGAIWAGGNTNYNSALMSRLTISKDNSKSQVSLKMSSLTAADTAIYYCAKGGYGNAMDYWGQGTLVTVSS
VL: DIVMTQSPSSLAVSLGERATMNCKSSQSLLNSGNQKNYLTWYQQKPGQPPKLLIYWASTRESGVPDRFSGSGSGTDFTLTISSVQAEDLAVYYCQNDYFFPFTFGQGTKLEIKR
notes: Human IgG1 (G1m17) / kappa
B6: h5M9V12 humanized antibody (h5M9 VHv4 / h5M9 VLv3) (antibody, human IgG1, kappa, V domains shown)
VH: B5 VH
VL: B5 VL with A19V, S69T, Q106S
notes: Human IgG1 (G1m17) / kappa
B7: h5M9V7 humanized antibody (h5M9 VHv3 / h5M9 VLv1) (antibody, human IgG1, kappa, V domains shown)
VH: B5 VH with L85V
VL: B5 VL
notes: Human IgG1 (G1m17) / kappa
B8: h5M9v9 humanized antibody (h5M9 VHv3 / h5M9 VLv3) (antibody, V domains shown)
VH: B5 VH with L85V
VL: B2 VL with T12A, T14S, A15L, S22N, S46P
notes: Human IgG1 (G1m17) heavy and human kappa light constant regions

Target: human claudin 18.2 (hCLDN18.2) (human)
Assay: cell-based or functional assay

Binder | EC50 [ng/mL] | Maximum induction fold [fold]
B1 | 0.0195 | 36.3
B2 | 0.000287 | 40
B3 | 0.0074 | 35

Target: T1, human claudin 18.2 (hCLDN18.2) (human)
T1 construct: also called CLDN18 splice variant 2; HEK293-hCLDN18.2
Assay: flow cytometry on hCLDN18.2 low-expressing KATO III cells
Method: (§1) The well-grown HEK293-hCLDN18.2 stably transfected cell line and the hCLDN18.2 low-expressing KATOIII human gastric cancer cell line sorted and enriched by flow cytometry were digested with trypsin, and resuspended to adjust the cell concentration to 1.5×10⁶˜2×10⁶/mL, added to a 96-well U-plate at 100 μL/well (150,000 to 200,000 cells/well). Washing once with PBS buffer containing 1% fetal bovine serum (FBS). The antibody solution (100 μL/well) with the test concentration prepared in PBS (+1% FBS) was added, mixed with the cells, and incubated at 4° C. for 1 hour. Cells were centrifuged at 200 g and washed once with PBS (+1% FBS). […] Cells were centrifuged at 200 g and washed twice with PBS (+1% FBS), then resuspended in 100 μL of PBS (+1% FBS) for flow cytometric analysis. […] In the study of the effect of heat treatment on the binding properties of antibodies, the antibody to be tested was heat-treated at 70° C. for 5 minutes on a PCR machine, and then incubated with cells for binding.

Binder | EC50 [µg/mL]
B4 | 0.8

Target: T2, mouse claudin 18.2 (mCLDN18.2) (mouse, UniProt P56857 10-264)
T2 construct: the stomach-type (A2) isoform is meant; also called m hCLDN18.2; HEK293-mCLDN18.2
T2 chain: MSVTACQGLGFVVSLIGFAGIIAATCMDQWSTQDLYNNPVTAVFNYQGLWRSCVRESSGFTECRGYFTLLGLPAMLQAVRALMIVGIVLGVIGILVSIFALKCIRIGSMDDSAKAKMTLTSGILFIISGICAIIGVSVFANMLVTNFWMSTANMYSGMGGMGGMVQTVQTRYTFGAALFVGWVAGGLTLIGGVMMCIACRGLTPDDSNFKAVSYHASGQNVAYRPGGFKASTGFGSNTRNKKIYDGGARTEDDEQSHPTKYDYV
Assay: flow cytometry, HEK293-mCLDN18.2 cells, fixed and non-fixed

Binder | binding result
B1 | binds

Target: T1, human claudin 18.2 (hCLDN18.2)
Assay: flow cytometry on HEK293-hCLDN18.2 cells; 1 ug/mL; not heat treated
Method: as §1

Binder | FACS binding signal (read-out unnamed)
B4 | 318
B5 | 316
B6 | 419
B7 | 296
B2 | 341
B8 | 291

Target: T1, human claudin 18.2 (hCLDN18.2)
Assay: flow cytometry on HEK293-hCLDN18.2 cells; 5 ug/mL; not heat treated
Method: as §1

Binder | FACS binding signal (read-out unnamed)
B4 | 567
B5 | 599
B6 | 589
B7 | 631
B2 | 638
B8 | 589

Target: T1, human claudin 18.2 (hCLDN18.2)
Assay: flow cytometry on HEK293-hCLDN18.2 cells; 0.2 ug/mL; not heat treated
Method: as §1

Binder | FACS binding signal (read-out unnamed)
B4 | 81.3
B5 | 73.7
B6 | 103
B7 | 84.3
B2 | 83
B8 | 66.8

Target: T3, mouse claudin 18.1 (mCLDN18.1) (mouse, UniProt P56857 1-264)
T3 construct: the lung-type (A1) isoform is meant; also called HEK293-mCLDN18.1
Assay: flow cytometry, HEK293-mCLDN18.1 cells, paraformaldehyde-fixed and non-fixed

Binder | binding result
B1 | no binding

Target: T1, human claudin 18.2 (hCLDN18.2)
Assay: flow cytometry (direct FACS binding, equilibrium at 4 C) on HEK293-hCLDN18.2 cells
Method: After resuscitation of HEK293 cells (HEK293-hCLDN18.2) stably expressing CLDN18.2, they were cultured and passaged until a certain number of cells were reached. The cells were distributed to 1 mL centrifuge tubes at a density of 5×10⁴/mL, and centrifuged for use. […] To eliminate ligand depletion effects (Ligand Depletion), antibody concentration series were prepared using PBS binding buffer diluted to the corresponding ligand depletion volume. HEK293-hCLDN18.2 cells were mixed and incubated with serial concentrations of antibodies formulated to the ligand elimination volume, and incubated at 4° C. until equilibrium.

Binder | Kd [nM]
B1 | 0.137
B4 | 0.189
B2 | 0.048
B3 | 0.049

Target: T1, human claudin 18.2 (hCLDN18.2)
Assay: flow cytometry on HEK293-hCLDN18.2 cells; 1 ug/mL; antibody heat treated at 70 C for 5 min
Method: as §1

Binder | FACS binding signal (read-out unnamed)
B4 | 296
B5 | 292
B6 | 411
B7 | 294
B2 | 289
B8 | 242

Target: T1, human claudin 18.2 (hCLDN18.2)
Assay: flow cytometry on HEK293-hCLDN18.2 cells; 5 ug/mL; antibody heat treated at 70 C for 5 min
Method: as §1

Binder | FACS binding signal (read-out unnamed)
B4 | 600
B5 | 607
B6 | 673
B7 | 732
B2 | 746
B8 | 636

Target: T1, human claudin 18.2 (hCLDN18.2)
Assay: flow cytometry on HEK293-hCLDN18.2 cells; 0.2 ug/mL; antibody heat treated at 70 C for 5 min
Method: as §1

Binder | FACS binding signal (read-out unnamed)
B5 | 70.8
B6 | 90
B7 | 73.3
B2 | 75.6
B8 | 59.2
